What was measured:
[1] = target: T1, recombinant human extracellular domain of EGFR fused to an IgG1 Fc (human, UniProt P00533 25-645); assay: affinity printed beside the clone name; SPR on EGFR-Fc taken as the method
T1 construct: Bought from R&D Systems; The residues are stated for the panning reagent; also called EGFR-Fc; EGF R-Fc; not shown: IgG1 Fc

[2] = target: human c-Met extracellular domain (human, UniProt P08581 16-932); assay: MSD plate competition assay, competitor biotinylated HGF at 10 nM
Method: MSD Blocker A buffer (Meso Scale Discovery, Gaithersburg, Md.) was added to each well and incubated for 2 hr at room temperature. […] After 2-hour incubation with gentle shaking at room temperature, the plates were washed 3 times with 0.1M HEPES buffer (pH 7.4). MSD Read Buffer T was diluted and dispensed and the signals were analyzed with a SECTOR Imager 6000.

[3] = target: T2, human c-Met on cells (human, UniProt P08581 25-1390); assay: H441 cell binding assay (assay for c-Met binding)
T2 construct: c-Met on NCI-H441, NCI-H292, NCI-H1975 and U87-MG cells; in U-2 OS cells a beta-galactosidase fragment was fused to its C-terminus; also called hepatocyte growth factor receptor
Method: Purified FN3 domains (50 μL/well; 0 to 1000 nM) were added to the cells for 1 hour at 4° C. in duplicate plates. […] Cells were incubated with biotinylated-anti HIS antibody (diluted 1:160 in FACS stain buffer, 50 μL/well, R&D Systems, cat #BAM050) for 30 minutes at 4° C. […] Cells were washed three times with FACS stain buffer (150 μL/well) and left in FACS stain buffer (50 μL/well).

[4] = target: T2, human c-Met on cells; assay: cell-based or functional assay
[5] = target: T3, human EGFR on cells (human, UniProt P00533 25-1210); assay: A431 cell binding assay (assay for EGFR binding)
T3 construct: Wild type EGFR on A431, NCI-H292, NCI-H322, NCI-H441 and SNU-5 cells; in U-2 OS cells a beta-galactosidase fragment was fused to its C-terminus; also called epidermal growth factor receptor; HER1

[6] = target: T1, recombinant human extracellular domain …; assay: SPR (ProteOn), EGFR-Fc captured on anti-human Fc IgG, FN3 domain as analyte
Method: Select EGFR-binding FN3 domains were screened to identify those with slow off-rates (koff) in binding to EGFR-Fc on a ProteOn XPR-36 instrument (Bio-Rad) to facilitate selection of high affinity binders. Goat anti-human Fc IgG (R&D systems), at a concentration of 5 μg/mL, was directly immobilized via amine coupling (at pH 5.0) on all 6 ligand channels in horizontal orientation on the chip with a flow rate of 30 μL/min in PBS containing 0.005% Tween-20. The immobilization densities averaged about 1500 Response Units (RU) with less than 5% variation among different channels. EGFR-Fc was captured on the anti-human Fc IgG surface to a density around 600 RU in vertical ligand orientation. All tested FN3 domains were normalized to a concentration of […] and tested for their binding in horizontal orientation. All 6 analyte channels were used for the FN3 domains to maximize screening throughput. The dissociation phase was monitored for 10 minutes at a flow rate of 100 μL/min. The inter-spot binding signals were used as references to monitor non-specific binding between analytes and the immobilized IgG surface, and were subtracted from all binding responses. The processed binding data were locally fit to a 1:1 simple Langmuir binding model to extract the koff for each FN3 domain binding to captured EGFR-Fc.
Binding affinity of selected EGFR-binding FN3 domains to recombinant EGFR extracellular domain was further characterized by surface Plasmon resonance methods using a Proteon Instrument (BioRad). The assay set-up (chip preparation, EGFR-Fc capture) was similar to that described above for off-rate analysis. Selected EGFR binding FN3 domains were tested at 1 μM concentration in 3-fold dilution series in the horizontal orientation. A buffer sample was also injected to monitor the baseline stability.

[7] = target: T3, human EGFR on cells; assay: cell-based or functional assay
[8] = target: T3, human EGFR on cells; assay: A431 cell EGF competition assay, competitor biotinylated EGF; A431 cell EGF competition assay: displaces EGF from EGFR on A431 cells

B1: P53A1R5-17v2 (designed binder, not shown: small tags and cut ends)
chain: LPAPKNLVVSEVTEDSARLSWADPHGFYDSFLIQYQESEKVGEAIVLTVPGSERSYDLTGLKPGTEYTVSIYGVHNVYKDTNMRGLPLSAIFTT
How did the Kd [1] turn out when B1 was run?
The Kd was 1.9 nM.

B2: parental bivalent anti-c-Met antibody M1-K409R (antibody, human IgG1, kappa, V domains shown)
VH: QVQLVQSGAEVKKPGASVKVSCETSGYTFTSYGISWVRQAPGHGLEWMGWISAYNGYTNYAQKLQGRVTMTTDTSTSTAYMELRSLRSDDTAVYYCARDLRGTNYFDYWGQGTLVTVSS
VL: DIQMTQSPSSVSASVGDRVTITCRASQGISNWLAWFQHKPGKAPKLLIYAASSLLSGVPSRFSGSGSGTDFTLTISSLQPEDFATYYCQQANSFPITFGQGTRLEIKR
notes: also called parental bivalent antibody; Parental mAbs
B2 was tested. Which IC50 [2] did it give?
The IC50 was 14.8 nM.

And the EC50 [3]?
The EC50 was 0.65 nM.

B3: control monovalent anti-cMet mAb M1-K409R-gp120-F405L (bispecific antibody, human IgG1, kappa)
heavy 1: not shown
light 1: DIQMTQSPSSVSASVGDRVTITCRASQGISNWLAWFQHKPGKAPKLLIYAASSLLSGVPSRFSGSGSGTDFTLTISSLQPEDFATYYCQQANSFPITFGQGTRLEIKRTVAAPSVFIFPPSDEQLKSGTASVVCLLNNFYPREAKVQWKVDNALQSGNSQESVTEQDSKDSTYSLSSTLTLSKADYEKHKVYACEVTHQGLSSPVTKSFNRGEC
heavy 2: not shown
light 2: EIVLTQSPGTLSLSPGERATFSCRSSHSIRSRRVAWYQHKPGQAPRLVIHGVSNRASGISDRFSGSGSGTDFTLTITRVEPEDFALYYCQVYGASSYTFGQGTKLERKRTVAAPSVFIFPPSDEQLKSGTASVVCLLNNFYPREAKVQWKVDNALQSGNSQESVTEQDSKDSTYSLSSTLTLSKADYEKHKVYACEVTHQGLSSPVTKSFNRGEC
notes: also called M1-K409R-120-F405L
With B3 as the binder, how does the “inhibition of ligand-induced c-Met phosphorylation in H292 cells (IC50)” value [4] read?
The value was 4.05 nM.

What about the EC50 [3] of the same binder?
Its EC50 is 1 nM.

B4: control monovalent anti-EGFR mAb E1-F405L-gp120-K409R (bispecific antibody, human IgG1, kappa)
heavy 1: not shown
light 1: not shown
heavy 2: not shown
light 2: B3 light 2
notes: also called E1-F405L-120-K409R
B4 was tested. Which EC50 [5] did it give?
Its EC50 is 10.1 nM.

B5: P54CR4-31 (designed binder, not shown: small tags and cut ends)
chain: LPAPKNLVVSEVTEDSLRLSWTAPDAAFDSFLIQYQESEKVGEAINLTVPGSERSYDLTGLKPGTEYTVSIYGVLGSYVFEHDVMLPLSAEFTT
Which results are given for B5?
Kd [6]: 0.383 nM; NCI-H292 Growth IC50 [7]: 1150 nM; NCI-H322 Growth IC50 [7]: > 3070 nM; Phospho-EGFR IC50 (A431 cells) [7]: 179 nM; IC50 [8]: 55 nM
